From patent US20250368745A1 (published 2025)

T1: human IL-18BP (human, UniProt O95998 31-194)
T1 construct: UniProt printed as 095998; also called hIL-18BP
T1 sequence: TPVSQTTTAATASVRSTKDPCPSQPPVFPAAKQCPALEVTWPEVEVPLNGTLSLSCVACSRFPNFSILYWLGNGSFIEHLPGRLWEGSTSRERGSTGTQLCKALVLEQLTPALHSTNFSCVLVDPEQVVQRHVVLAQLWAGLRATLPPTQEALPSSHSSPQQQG


What follows are binders tested against T1, human IL-18BP (assay: BLI, apparent KD).

Binder	Kd [nM]
SA302a HC-T30A (antibody, V domains shown) VH: QVQLQESGPGLVKPSQTLSLTCTVSGYSIASDYNAHWIRQPPGKGLEWIGYIHYSGSTNYNPSLKSRVTISRDTSKNQFSLKLSSVTAADTAVYYCARNYGSIYVNYFDYWGQGTLVTVSS VL: EIVLTQSPATLSLSPGERATLSCSASSSVSYMYWYQQKPGQAPRPLIYRTSNLASGIPARFSGSGSGTDFTLTISSLEPEDFAVYYCQQYHSYPTFGGGTKVEIK	1.32
SA302a HC-S31H (antibody, V domains shown) VH: QVQLQESGPGLVKPSQTLSLTCTVSGYSITHDYNAHWIRQPPGKGLEWIGYIHYSGSTNYNPSLKSRVTISRDTSKNQFSLKLSSVTAADTAVYYCARNYGSIYVNYFDYWGQGTLVTVSS VL: EIVLTQSPATLSLSPGERATLSCSASSSVSYMYWYQQKPGQAPRPLIYRTSNLASGIPARFSGSGSGTDFTLTISSLEPEDFAVYYCQQYHSYPTFGGGTKVEIK	0.57
SA302a HC-T30M (antibody, V domains shown) VH: QVQLQESGPGLVKPSQTLSLTCTVSGYSIMSDYNAHWIRQPPGKGLEWIGYIHYSGSTNYNPSLKSRVTISRDTSKNQFSLKLSSVTAADTAVYYCARNYGSIYVNYFDYWGQGTLVTVSS VL: EIVLTQSPATLSLSPGERATLSCSASSSVSYMYWYQQKPGQAPRPLIYRTSNLASGIPARFSGSGSGTDFTLTISSLEPEDFAVYYCQQYHSYPTFGGGTKVEIK	1.54
SA302a HC-S31E (antibody, V domains shown) VH: QVQLQESGPGLVKPSQTLSLTCTVSGYSITEDYNAHWIRQPPGKGLEWIGYIHYSGSTNYNPSLKSRVTISRDTSKNQFSLKLSSVTAADTAVYYCARNYGSIYVNYFDYWGQGTLVTVSS VL: EIVLTQSPATLSLSPGERATLSCSASSSVSYMYWYQQKPGQAPRPLIYRTSNLASGIPARFSGSGSGTDFTLTISSLEPEDFAVYYCQQYHSYPTFGGGTKVEIK	1.53
SA302a HC-S31F (antibody, V domains shown) VH: QVQLQESGPGLVKPSQTLSLTCTVSGYSITFDYNAHWIRQPPGKGLEWIGYIHYSGSTNYNPSLKSRVTISRDTSKNQFSLKLSSVTAADTAVYYCARNYGSIYVNYFDYWGQGTLVTVSS VL: EIVLTQSPATLSLSPGERATLSCSASSSVSYMYWYQQKPGQAPRPLIYRTSNLASGIPARFSGSGSGTDFTLTISSLEPEDFAVYYCQQYHSYPTFGGGTKVEIK	0.79
SA302a HC-S31I (antibody, V domains shown) VH: QVQLQESGPGLVKPSQTLSLTCTVSGYSITIDYNAHWIRQPPGKGLEWIGYIHYSGSTNYNPSLKSRVTISRDTSKNQFSLKLSSVTAADTAVYYCARNYGSIYVNYFDYWGQGTLVTVSS VL: EIVLTQSPATLSLSPGERATLSCSASSSVSYMYWYQQKPGQAPRPLIYRTSNLASGIPARFSGSGSGTDFTLTISSLEPEDFAVYYCQQYHSYPTFGGGTKVEIK	1.01
SA302a HC-S31N (antibody, V domains shown) VH: QVQLQESGPGLVKPSQTLSLTCTVSGYSITNDYNAHWIRQPPGKGLEWIGYIHYSGSTNYNPSLKSRVTISRDTSKNQFSLKLSSVTAADTAVYYCARNYGSIYVNYFDYWGQGTLVTVSS VL: EIVLTQSPATLSLSPGERATLSCSASSSVSYMYWYQQKPGQAPRPLIYRTSNLASGIPARFSGSGSGTDFTLTISSLEPEDFAVYYCQQYHSYPTFGGGTKVEIK	0.98
SA302a HC-S31M (antibody, V domains shown) VH: QVQLQESGPGLVKPSQTLSLTCTVSGYSITMDYNAHWIRQPPGKGLEWIGYIHYSGSTNYNPSLKSRVTISRDTSKNQFSLKLSSVTAADTAVYYCARNYGSIYVNYFDYWGQGTLVTVSS VL: EIVLTQSPATLSLSPGERATLSCSASSSVSYMYWYQQKPGQAPRPLIYRTSNLASGIPARFSGSGSGTDFTLTISSLEPEDFAVYYCQQYHSYPTFGGGTKVEIK	0.61
SA302a HC-S31V (antibody, V domains shown) VH: QVQLQESGPGLVKPSQTLSLTCTVSGYSITVDYNAHWIRQPPGKGLEWIGYIHYSGSTNYNPSLKSRVTISRDTSKNQFSLKLSSVTAADTAVYYCARNYGSIYVNYFDYWGQGTLVTVSS VL: EIVLTQSPATLSLSPGERATLSCSASSSVSYMYWYQQKPGQAPRPLIYRTSNLASGIPARFSGSGSGTDFTLTISSLEPEDFAVYYCQQYHSYPTFGGGTKVEIK	1.09
SA302a HC-S31G (antibody, V domains shown) VH: QVQLQESGPGLVKPSQTLSLTCTVSGYSITGDYNAHWIRQPPGKGLEWIGYIHYSGSTNYNPSLKSRVTISRDTSKNQFSLKLSSVTAADTAVYYCARNYGSIYVNYFDYWGQGTLVTVSS VL: EIVLTQSPATLSLSPGERATLSCSASSSVSYMYWYQQKPGQAPRPLIYRTSNLASGIPARFSGSGSGTDFTLTISSLEPEDFAVYYCQQYHSYPTFGGGTKVEIK	1.64
SA302a HC-S31P (antibody, V domains shown) VH: QVQLQESGPGLVKPSQTLSLTCTVSGYSITPDYNAHWIRQPPGKGLEWIGYIHYSGSTNYNPSLKSRVTISRDTSKNQFSLKLSSVTAADTAVYYCARNYGSIYVNYFDYWGQGTLVTVSS VL: EIVLTQSPATLSLSPGERATLSCSASSSVSYMYWYQQKPGQAPRPLIYRTSNLASGIPARFSGSGSGTDFTLTISSLEPEDFAVYYCQQYHSYPTFGGGTKVEIK	4.37
SA302a HC-S31T (antibody, V domains shown) VH: QVQLQESGPGLVKPSQTLSLTCTVSGYSITTDYNAHWIRQPPGKGLEWIGYIHYSGSTNYNPSLKSRVTISRDTSKNQFSLKLSSVTAADTAVYYCARNYGSIYVNYFDYWGQGTLVTVSS VL: EIVLTQSPATLSLSPGERATLSCSASSSVSYMYWYQQKPGQAPRPLIYRTSNLASGIPARFSGSGSGTDFTLTISSLEPEDFAVYYCQQYHSYPTFGGGTKVEIK	1.02
SA302a HC-S31A (antibody, V domains shown) VH: QVQLQESGPGLVKPSQTLSLTCTVSGYSITADYNAHWIRQPPGKGLEWIGYIHYSGSTNYNPSLKSRVTISRDTSKNQFSLKLSSVTAADTAVYYCARNYGSIYVNYFDYWGQGTLVTVSS VL: EIVLTQSPATLSLSPGERATLSCSASSSVSYMYWYQQKPGQAPRPLIYRTSNLASGIPARFSGSGSGTDFTLTISSLEPEDFAVYYCQQYHSYPTFGGGTKVEIK	0.92
SA302a HC-S31L (antibody, V domains shown) VH: QVQLQESGPGLVKPSQTLSLTCTVSGYSITLDYNAHWIRQPPGKGLEWIGYIHYSGSTNYNPSLKSRVTISRDTSKNQFSLKLSSVTAADTAVYYCARNYGSIYVNYFDYWGQGTLVTVSS VL: EIVLTQSPATLSLSPGERATLSCSASSSVSYMYWYQQKPGQAPRPLIYRTSNLASGIPARFSGSGSGTDFTLTISSLEPEDFAVYYCQQYHSYPTFGGGTKVEIK	0.98
SA302a HC-T30L (antibody, V domains shown) VH: QVQLQESGPGLVKPSQTLSLTCTVSGYSILSDYNAHWIRQPPGKGLEWIGYIHYSGSTNYNPSLKSRVTISRDTSKNQFSLKLSSVTAADTAVYYCARNYGSIYVNYFDYWGQGTLVTVSS VL: EIVLTQSPATLSLSPGERATLSCSASSSVSYMYWYQQKPGQAPRPLIYRTSNLASGIPARFSGSGSGTDFTLTISSLEPEDFAVYYCQQYHSYPTFGGGTKVEIK	1.22
SA302a HC-S31Y (antibody, V domains shown) VH: QVQLQESGPGLVKPSQTLSLTCTVSGYSITYDYNAHWIRQPPGKGLEWIGYIHYSGSTNYNPSLKSRVTISRDTSKNQFSLKLSSVTAADTAVYYCARNYGSIYVNYFDYWGQGTLVTVSS VL: EIVLTQSPATLSLSPGERATLSCSASSSVSYMYWYQQKPGQAPRPLIYRTSNLASGIPARFSGSGSGTDFTLTISSLEPEDFAVYYCQQYHSYPTFGGGTKVEIK	1.11
